How the values were obtained:
[1] = molecular target: murine anti-fHbp monoclonal antibody JAR5 (IgG2b) (mouse); assay: SPR
[2] = molecular target: T1, factor H binding protein (fHbp) variant 1.1, wild type (Neisseria meningitidis serogroup B …, UniProt Q9JXV4); assay: SPR; fHbp covalently immobilised by amine coupling on a CM5 chip (~500 RU); mAbs at 100 nM in HBS-EP injected one after the other (first mAb to saturation, then the second), both orders; 25 °C; conditions: both partners purified
T1 construct: source: E. coli BL21(DE3), purified

Sequence of murine anti-fHbp monoclonal antibody JAR5 (IgG2b) (mouse) (heavy, as listed by the source, chain 1 of 2, other chains not shown): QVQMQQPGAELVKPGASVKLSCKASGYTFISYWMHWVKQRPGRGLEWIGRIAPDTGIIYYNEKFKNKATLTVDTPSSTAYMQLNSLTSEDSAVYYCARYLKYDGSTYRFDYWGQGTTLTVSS

fHbp variant 1.1 Asp85Ala mutant (natural protein)
Kd [1]: 20 nM

fHbp variant 1.1 Gln87Ala mutant (natural protein)
Kd [1]: 1.7 nM

fHbp variant 1.1 Gln115Ala mutant (natural protein)
Kd [1]: 23 nM

fHbp variant 1.1 Gly121Ala mutant (natural protein)
Kd [1]: 20 nM

fHbp variant 1.1 Lys122Ala mutant (natural protein)
Kd [1]: 17 nM

fHbp variant 1.1 Lys122Ser mutant (natural protein)
Kd [1]: 13 nM

B1: murine anti-fHbp monoclonal antibody 12C1 (IgG2b) (antibody, V domains shown)
VH: QVQLQESGPELVKPGASVKISCKASGYSFSDYNMSWVKQSNGKSLEWIGIIDPKYGTINYNQKFKGKATLTVDQASSTAYMQLNSLTSEDSAVYYCVRDYYGSSYFDYWGQGTTLTVSS
VL: DIVLTQSPSSIYASLGERVTLTCKASQDIHNYLNWFQQKPGKSPKTLIYRANRLVDGVPSRFSGGGSGQDYSLTISSLEFEDIGIYYCLQYDEFPPTFGGGTRLEIK
notes: also called mAb 12C1
binding result [2]: binds

— publication PMC6398935 (The Biochemical journal, 2016)
